According to patent US20190225698A1 (JIANGSU HENGRUI MEDICINE, published 2019):

T1: murine CD40 expressed on transfected HEK293 cells (murine, UniProt P27512 20-289)
T1 construct: whole, on cells
T1 sequence (looked up): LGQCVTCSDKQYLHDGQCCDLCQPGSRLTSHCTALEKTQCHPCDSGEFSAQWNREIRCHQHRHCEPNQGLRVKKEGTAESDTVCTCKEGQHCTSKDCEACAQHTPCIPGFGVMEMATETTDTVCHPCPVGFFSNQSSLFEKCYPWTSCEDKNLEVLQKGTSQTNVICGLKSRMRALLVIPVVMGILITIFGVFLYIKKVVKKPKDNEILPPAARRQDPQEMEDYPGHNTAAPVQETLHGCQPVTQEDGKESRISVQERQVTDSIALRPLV

T2: human OX40 expressed on transfected HEK293 cells (human, UniProt P43489 29-277)
T2 construct: whole, on cells
T2 sequence (looked up): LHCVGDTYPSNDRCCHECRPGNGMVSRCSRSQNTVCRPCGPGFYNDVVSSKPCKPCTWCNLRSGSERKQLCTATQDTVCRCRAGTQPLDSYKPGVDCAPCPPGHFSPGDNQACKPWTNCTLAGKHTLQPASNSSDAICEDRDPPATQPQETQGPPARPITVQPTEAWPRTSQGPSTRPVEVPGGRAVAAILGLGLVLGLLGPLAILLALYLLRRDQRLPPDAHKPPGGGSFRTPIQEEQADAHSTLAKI

T3: murine OX40 expressed on transfected HEK293 cells (murine, UniProt P47741 20-272)
T3 construct: whole, on cells
T3 sequence (looked up): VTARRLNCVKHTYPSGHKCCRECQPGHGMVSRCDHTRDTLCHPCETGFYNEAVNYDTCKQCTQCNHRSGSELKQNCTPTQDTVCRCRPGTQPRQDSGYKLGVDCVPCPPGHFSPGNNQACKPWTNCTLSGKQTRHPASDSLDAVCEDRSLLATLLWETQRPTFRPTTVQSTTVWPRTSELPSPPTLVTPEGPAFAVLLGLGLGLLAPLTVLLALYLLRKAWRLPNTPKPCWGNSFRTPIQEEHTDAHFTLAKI

T4: human FAS expressed on transfected HEK293 cells (human, UniProt P25445 26-335)
T4 construct: whole, on cells
T4 sequence (looked up): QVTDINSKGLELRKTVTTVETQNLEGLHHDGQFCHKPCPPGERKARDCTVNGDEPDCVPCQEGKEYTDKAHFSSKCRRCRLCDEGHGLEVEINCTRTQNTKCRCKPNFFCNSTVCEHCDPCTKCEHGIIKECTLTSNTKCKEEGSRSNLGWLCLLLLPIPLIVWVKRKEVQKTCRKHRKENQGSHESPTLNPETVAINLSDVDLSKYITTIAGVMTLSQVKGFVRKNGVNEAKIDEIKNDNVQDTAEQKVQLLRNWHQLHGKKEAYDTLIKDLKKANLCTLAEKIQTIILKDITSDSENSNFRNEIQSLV

T5: murine FAS expressed on transfected HEK293 cells (murine, UniProt P25446 22-327)
T5 construct: whole, on cells
T5 sequence (looked up): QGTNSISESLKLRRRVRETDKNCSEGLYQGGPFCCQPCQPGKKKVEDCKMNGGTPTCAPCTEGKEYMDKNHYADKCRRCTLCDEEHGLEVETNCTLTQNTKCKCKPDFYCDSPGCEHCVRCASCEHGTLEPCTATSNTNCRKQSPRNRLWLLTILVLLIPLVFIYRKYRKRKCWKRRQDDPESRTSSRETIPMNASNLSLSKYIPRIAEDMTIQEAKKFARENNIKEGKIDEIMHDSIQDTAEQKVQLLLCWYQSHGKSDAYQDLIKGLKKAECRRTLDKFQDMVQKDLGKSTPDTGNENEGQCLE

T6: human TNFRSF1A expressed on transfected HEK293 cells (human, UniProt P19438 30-455)
T6 construct: whole, on cells
T6 sequence (looked up): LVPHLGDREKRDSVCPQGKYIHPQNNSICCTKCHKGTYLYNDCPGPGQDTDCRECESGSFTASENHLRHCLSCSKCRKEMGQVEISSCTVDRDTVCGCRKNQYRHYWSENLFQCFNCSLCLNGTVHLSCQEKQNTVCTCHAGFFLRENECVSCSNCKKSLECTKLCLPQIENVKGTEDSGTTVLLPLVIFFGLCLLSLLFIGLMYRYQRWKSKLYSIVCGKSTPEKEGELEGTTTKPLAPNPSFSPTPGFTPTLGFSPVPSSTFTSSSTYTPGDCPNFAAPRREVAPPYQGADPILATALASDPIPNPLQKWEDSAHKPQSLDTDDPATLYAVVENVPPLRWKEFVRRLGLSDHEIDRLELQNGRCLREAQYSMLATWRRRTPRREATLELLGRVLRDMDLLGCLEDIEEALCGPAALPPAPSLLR

T7: murine CD27-FcHis fusion protein (murine, UniProt P41272 24-182, limits assumed)
T7 construct: Immobilized directly on the chip by amino coupling; also called mouse CD27; not shown: Fc and His tag
T7 sequence (looked up): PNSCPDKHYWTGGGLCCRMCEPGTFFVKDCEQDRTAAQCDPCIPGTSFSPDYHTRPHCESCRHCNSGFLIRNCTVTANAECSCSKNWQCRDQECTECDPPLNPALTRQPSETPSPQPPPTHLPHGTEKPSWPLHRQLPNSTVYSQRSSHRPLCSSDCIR


How the values were obtained:
[1] = molecular target: T8, human CD40 expressed on transfected HEK293 cells (human, UniProt P25942 21-277); experiment: flow cytometry on transfected HEK293 cells
T8 construct: whole, on cells
T8 sequence (P25942 21-277): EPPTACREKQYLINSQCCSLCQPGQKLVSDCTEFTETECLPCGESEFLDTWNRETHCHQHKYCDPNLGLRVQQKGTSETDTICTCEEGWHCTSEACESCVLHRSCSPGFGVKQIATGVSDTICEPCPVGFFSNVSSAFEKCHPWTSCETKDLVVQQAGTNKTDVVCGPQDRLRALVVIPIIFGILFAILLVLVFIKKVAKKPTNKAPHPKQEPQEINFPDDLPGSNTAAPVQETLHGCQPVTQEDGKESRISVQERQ

[2] = molecular target: T1, murine CD40 expressed on transfected …; experiment: flow cytometry on transfected HEK293 cells
[3] = molecular target: T2, human OX40 expressed on transfected …; experiment: flow cytometry on transfected HEK293 cells
[4] = molecular target: T3, murine OX40 expressed on transfected …; experiment: flow cytometry on transfected HEK293 cells
[5] = molecular target: T9, human CD137 expressed on transfected HEK293 cells (human, UniProt Q07011 24-255); experiment: flow cytometry on transfected HEK293 cells
T9 construct: whole, on cells
T9 sequence (Q07011 24-255): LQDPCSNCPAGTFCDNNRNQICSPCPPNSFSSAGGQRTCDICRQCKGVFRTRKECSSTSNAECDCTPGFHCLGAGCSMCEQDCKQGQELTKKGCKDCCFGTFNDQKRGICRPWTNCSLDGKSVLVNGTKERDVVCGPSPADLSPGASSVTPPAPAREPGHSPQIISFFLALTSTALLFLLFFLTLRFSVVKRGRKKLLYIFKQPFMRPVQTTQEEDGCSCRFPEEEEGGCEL

[6] = molecular target: T4, human FAS expressed on transfected …; experiment: flow cytometry on transfected HEK293 cells
[7] = molecular target: T5, murine FAS expressed on transfected …; experiment: flow cytometry on transfected HEK293 cells
[8] = molecular target: T6, human TNFRSF1A expressed on transfected …; experiment: flow cytometry on transfected HEK293 cells
[9] = molecular target: T7, murine CD27-FcHis fusion protein; experiment: SPR (Biacore), murine CD27-FcHis immobilized, antibody as analyte
Experimental: The affinity of the antibody binding to […] CD27 was also determined using SPR. In this experiment, the murine CD27-FcHis fusion protein was directly immobilized on a CMS chip (600 RU) by amino coupling. Antibodies at different concentrations (0.39, 0.78, 1.56, 3.13, 6.25, 12.5, 25, 50, 100 nM) were loaded at a flow rate of […] for 30 seconds with a dissociation time of 1800 seconds.

Binder | binding result [1] | binding result [2] | binding result [3] | binding result [4] | binding result [5] | binding result [6] | binding result [7] | binding result [8] | binding result [9]
anti-CD27 antibody mAb076 (IgG1 form) (antibody, V domains shown, Human antibody from phage display) VH: EVQLVESGGGLVQPGGSLRLSCAASGFTFSDYGIHWVRQAPGKGLEWIGWINPNRGSTNYAQKFQGRVTISRDNSKNTLYLQLNSLRAEDTAVYYCARDYGYTWYFDVWGQGTLVTVSS VL: DIQLTQSPSSLSASVGDRVTITCRASQDISSVLAWYQQKPGKAPKLLIYAASSLQSGVPSRFSGSGSGTDFTLTISSLQPEDFATYYCQQRDAWPLTFGQGTKVEIK | no binding (tested: 100 nM) | no binding (tested: 100 nM) | no binding (tested: 100 nM) | no binding (tested: 100 nM) | no binding (tested: 100 nM) | no binding (tested: 100 nM) | no binding (tested: 100 nM) | no binding (tested: 100 nM) | binds
anti-CD27 antibody mAb077 (IgG1 form) (antibody, V domains shown, Human antibody from phage display) VH: EVQLVESGGGLVQPGGSLRLSCAASGFTFSGYGIHWVRQAPGKGLEWIGWINPNRGSTKYAQKFQGRVTISRDNSKNTLYLQLNSLRAEDTAVYYCARDPGYTWYFDVWGQGTLVTVSS VL: DIQLTQSPSSLSASVGDRVTITCRASQDISSDLAWYQQKPGKAPKLLIYAASTLQSGVPSRFSGSGSGTDFTLTISSLQPEDFATYYCQQRDAWPPTFGQGTKVEIK | no binding (tested: 100 nM) | no binding (tested: 100 nM) | no binding (tested: 100 nM) | no binding (tested: 100 nM) | no binding (tested: 100 nM) | no binding (tested: 100 nM) | no binding (tested: 100 nM) | no binding (tested: 100 nM) | binds
